One molecule from patent US20190023807A1 (CRESCENDO BIOLOGICS, published 2019) can be followed below.

Test [1] addresses T1, human PSMA (prostate specific membrane antigen), full-length, expressed on cells (human, UniProt Q04609 1-750). Briefly: cell-based or functional assay.
Test [2] concerns the target T1, human PSMA (prostate specific membrane …). Put plainly: cell-based or functional assay. The source holds these as a separate data set.

T1 sequence (Q04609 whole entry): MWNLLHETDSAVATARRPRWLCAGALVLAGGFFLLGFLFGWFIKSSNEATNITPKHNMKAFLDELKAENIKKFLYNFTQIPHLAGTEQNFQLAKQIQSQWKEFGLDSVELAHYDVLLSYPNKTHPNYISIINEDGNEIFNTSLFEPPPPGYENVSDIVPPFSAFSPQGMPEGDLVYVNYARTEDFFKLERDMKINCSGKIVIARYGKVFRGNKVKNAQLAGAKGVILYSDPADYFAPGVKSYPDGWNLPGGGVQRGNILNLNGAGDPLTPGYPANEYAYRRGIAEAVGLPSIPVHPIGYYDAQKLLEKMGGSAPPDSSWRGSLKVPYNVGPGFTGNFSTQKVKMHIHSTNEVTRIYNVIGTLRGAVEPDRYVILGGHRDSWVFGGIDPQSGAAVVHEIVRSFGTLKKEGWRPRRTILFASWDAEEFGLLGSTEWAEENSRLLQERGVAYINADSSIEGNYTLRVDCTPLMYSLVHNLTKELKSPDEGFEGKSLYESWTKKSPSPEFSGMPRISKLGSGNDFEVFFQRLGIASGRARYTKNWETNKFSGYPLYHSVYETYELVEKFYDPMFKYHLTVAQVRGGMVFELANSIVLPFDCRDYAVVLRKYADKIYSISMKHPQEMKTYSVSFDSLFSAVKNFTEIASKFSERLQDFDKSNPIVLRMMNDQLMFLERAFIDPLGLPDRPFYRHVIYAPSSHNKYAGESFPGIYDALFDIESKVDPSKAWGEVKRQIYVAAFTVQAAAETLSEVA

B1: HiPEG D-His6 val-cit-PAB-MMAE (other)
VH: EVQLLESGGGLVQPGGSLRLSCAASGFRISDEDMGWVRQAPGKGLEWVSSIYGPSGSTYYADSVKGRFTISRDNSKNTLYLQMNSLRAEDTAVYYCASALEPLSEPLGFWGQGTLVTVSSAAAHHHHHH
modifications: HiPEG val-cit-PAB-MMAE attached via the C-terminal His6 tag
For B1, in test [1], the “cytotoxicity on PSMA-DU145, 48 h, Mean IC50” value is more than 300 nM. Besides, in test [2], the “PSMA-DU145 cytotoxicity assay (72 h), IC50” value was more than 100 nM and the “PSMA-DU145 cytotoxicity assay (72 h), IC50 (toxin)” value was more than 100 nM.
